Molecular target: T1, HLA-A*02:01 (human)
T1 construct: MHC monomer first loaded with a UV-sensitive peptide, which is cleaved by UV and exchanged with the test peptide; captured on streptavidin plates; also called peptide-receptive MHC molecules
Assay: UV-ligand exchange + anti-b2m ELISA; +++ = peptide exchange yield >50
From the text: Candidate peptides for T cell based therapies according to the present invention were further tested for their MHC binding capacity (affinity). The individual peptide-MHC complexes were produced by UV-ligand exchange, where a UV-sensitive peptide is cleaved upon UV-irradiation, and exchanged with the peptide of interest as analyzed. Only peptide candidates that can effectively bind and stabilize the peptide-receptive MHC molecules prevent dissociation of the MHC complexes. To determine the yield of the exchange reaction, an ELISA was performed based on the detection of the light chain (β2m) of stabilized MHC complexes. The assay was performed as generally described in Rodenko et al. (Rodenko et al., 2006).
96 well MAXISorp plates (NUNC) were coated over night with 2 ug/ml streptavidin in PBS at room temperature, washed 4× and blocked forth at 37° C. in 2% BSA containing blocking buffer. Refolded HLA-A*02:01/MLA-001 monomers served as standards, covering the range of 15-500 ng/ml. Peptide-MHC monomers of the UV-exchange reaction were diluted 100 fold in blocking buffer. Samples were incubated for 1 h at 37° C., washed four times, incubated with 2 ug/ml HRP conjugated anti-β2m for 1 h at 37° C., washed again and detected with TMB solution that is stopped with […]. Absorption was measured at 450 nm. Candidate peptides that show a high exchange yield (preferably higher than 50%, most preferred higher than 75%) are generally preferred for a generation and production of antibodies or fragments thereof, and/or T cell receptors or fragments thereof, as they show sufficient avidity to the MHC molecules and prevent dissociation of the MHC complexes.

ALLDEQQVNV (gene: ID1)
peptide exchange yield: 50 to 75%

VLFNIDGQGNHV (gene: GATA3)
peptide exchange yield: 50 to 75%

GLSEPIFQL (gene: MFN1)
peptide exchange yield: 50 to 75%

KLPEPPPLA (gene: ERV3-1)
peptide exchange yield: 50 to 75%

VLFGEITRL (gene: NDUFS2)
peptide exchange yield: 50 to 75%

VLMDDTDPL (gene: PSMC1)
peptide exchange yield: 50 to 75%

IIIPEIQKV (gene: CSE1L)
peptide exchange yield: 50 to 75%

LLDVTPKAV (gene: TJP2)
peptide exchange yield: 50 to 75%

TLVTGLASV (gene: MFN1)
peptide exchange yield: 50 to 75%

GQLDFSEFL (gene: S100A11)
peptide exchange yield: 50 to 75%

SLATTLTKI (gene: COPB1)
peptide exchange yield: 50 to 75%

VLMDDTDPLV (gene: PSMC1)
peptide exchange yield: 50 to 75%

TLIEDDALNGA (gene: HPGD)
peptide exchange yield: 50 to 75%

GLLKAYSIRTA (gene: KRT7)
peptide exchange yield: 50 to 75%

GLAGPVRGV (genes: SNURF, SNRPB, SNRPN)
peptide exchange yield: 50 to 75%

SLATLEGIQL (gene: ZNF236)
peptide exchange yield: 50 to 75%

VLANRVAVV (gene: DHRS2)
peptide exchange yield: 50 to 75%

ALYPGQLVQL (gene: ARHGAP9)
peptide exchange yield: 50 to 75%

SLDSSGFSL (gene: PARP4)
peptide exchange yield: 50 to 75%

LLAGLLVGV (gene: C1orf159)
peptide exchange yield: 50 to 75%

FLLPLIIVL (gene: MR1)
peptide exchange yield: 50 to 75%

IITKDLFQV (gene: DYNC1H1)
peptide exchange yield: 50 to 75%

ILSAILVHL (gene: MROH2A)
peptide exchange yield: 50 to 75%

YLEPKLTQV (gene: PSME4)
peptide exchange yield: 50 to 75%

YLAGEAPTL (gene: VARS)
peptide exchange yield: 50 to 75%

AMASHLTST (gene: RBM4)
peptide exchange yield: 50 to 75%

TLTSIIVAV (gene: MROH2A)
peptide exchange yield: 50 to 75%

FLIDASQRV (gene: COL6A5)
peptide exchange yield: 50 to 75%

QIWDKILSV (gene: DHRS2)
peptide exchange yield: 50 to 75%

GLDSSVNVQGSVL (gene: WTAP)
peptide exchange yield: 50 to 75%

FLGENISNFL (gene: APOL1)
peptide exchange yield: 50 to 75%

SLWEENQAL (gene: LAMA5)
peptide exchange yield: 50 to 75%

YLAPENGYLMEA (gene: SNRNP70)
peptide exchange yield: 50 to 75%

IVAPGTFEV (gene: ILF2)
peptide exchange yield: 50 to 75%

TLFPSKIGV (genes: MOB1A, MOB1B)
peptide exchange yield: 50 to 75%

YMLDIFHEVL (gene: HAS3)
peptide exchange yield: 50 to 75%

RLIDDMVAQA (gene: IDH1)
peptide exchange yield: 50 to 75%

ALSSPPPTV (gene: ZFYVE9)
peptide exchange yield: 50 to 75%

KLNATNIEL (gene: PSMA5)
peptide exchange yield: 50 to 75%

QLAWFDTDL (gene: CTNNB1)
peptide exchange yield: 50 to 75%

SLIGGTNFV (gene: AP1B1)
peptide exchange yield: 50 to 75%

YLDPNQRDL (gene: ZNF573)
peptide exchange yield: 50 to 75%

RLSQLEGVNV (gene as printed: VP535)
peptide exchange yield: 50 to 75%

ILGPQGNTI (gene: KHDRBS1)
peptide exchange yield: 50 to 75%

ILVQVIPVV (gene: IRF6)
peptide exchange yield: 50 to 75%

VIADRVVTV (gene: VWA5B1)
peptide exchange yield: 50 to 75%

YQAPDIDVQL (gene: GLTSCR2)
peptide exchange yield: 50 to 75%

ALNDEINFL (gene: KRT7)
peptide exchange yield: 50 to 75%

QIDGTLSTI (genes: FBXO34, CHMP4C, CHMP4B, CHMP4BP1)
peptide exchange yield: 50 to 75%

GLLSQGSPL (gene: GCLC)
peptide exchange yield: 50 to 75%

ILLDTPLFL (gene: SERHL2)
peptide exchange yield: 50 to 75%

RLLDFPTLLV (gene: MAP10)
peptide exchange yield: 50 to 75%

ILLRDLPTL (gene: FAM174B)
peptide exchange yield: 50 to 75%

ALWDEFNQL (gene: TBX1)
peptide exchange yield: 50 to 75%

YLTNEGIQYL (genes: RPS10-NUDT3, RPS10)
peptide exchange yield: 50 to 75%

SIVDFLITA (gene: PPP1R13L)
peptide exchange yield: 50 to 75%

STTNGGILTV (gene: FYTTD1)
peptide exchange yield: 50 to 75%

YLDPSLNSL (gene: CXorf57)
peptide exchange yield: 50 to 75%

TMIVSLAAV (gene: ARL6IP1)
peptide exchange yield: 50 to 75%

ILDISRSEV (gene: GPR107)
peptide exchange yield: 50 to 75%

GLAQDPKSLQL (gene: TTC28)
peptide exchange yield: 50 to 75%

FLEEKEQAAL (genes: TRIM16, CDRT1, TRIM16L)
peptide exchange yield: 50 to 75%

SLDEKQNLV (gene: METTL8)
peptide exchange yield: 50 to 75%

SLLDFERSL (gene: HPS3)
peptide exchange yield: 50 to 75%

LLYPTEITV (gene: ITGA3)
peptide exchange yield: 50 to 75%

QLQGYLRSV (gene: RPL6)
peptide exchange yield: 50 to 75%

QMLELITRL (gene: DICER1)
peptide exchange yield: 50 to 75%

From patent publication US20170253633A1 (IMMATICS BIOTECHNOLOGIES, published 2017)
